According to article PMC5053164:

B1: DORN1 extracellular domain (atDORN1-ECD; LecRK-I.9): N124N225D (protein)
parent chain: MARWLLQILIISSLHLSSVSSQQETSFVYESFLDRQNLYLDKSAIVLPSGLLQLTNASEHQMGHAFHKKPIEFSSSGPLSFSTHFVCALVPKPGFEGGHGIVFVLSPSMDFTHAESTRYLGIFNASTNGSSSYHVLAVELDTIWNPDFKDIDHNHVGIDVNSPISVAIASASYYSDMKGSNESINLLSGNPIQVWVDYEGTLLNVSVAPLEVQKPTRPLLSHPINLTELFPNRSSLFAGFSAATGTAISDQYILWWSFSIDRGSLQRLDISKLPEVPHPRAPHKKVSTLIILLPVCLAILVLAVLAGLYFRRRRKYSEVSETWEKEFDAHRFSYRSLFKATKGFSKDEFLGKGGFGEVYRGNLPQGREIAVKRVSHNGDEGVKQFVAEVVSMRCLKHRNLVPLFGYCRRKRELLLVSEYMPNGSLDEHLFDDQKPVLSWSQRLVVVKGIASALWYLHTGADQVVLHRDVKASNIMLDAEFHGRLGDFGMARFHEHGGNAATTAAVGTVGYMAPELITMGASTGTDVYAFGVFMLEVTCGRRPVEPQLQVEKRHMIKWVCECWKKDSLLDATDPRLGGKFVAEEVEMVMKLGLLCSNIVPESRPTMEQVVLYLNKNLPLPDFSPYTLGIGTFAPVLVDASSLVVSSASWSLSGPSMSSSSPNHSPYAWQSTDQPWGQTIDTKNSLHIVAEPEKPSPAVKMVTLPAEDPQSNHSSISSQRVQPVKREKRRLHQILVAFPWINKQYFKLGLPKHIVHVSLFFFLQLARL
B2: DORN1 extracellular domain (atDORN1-ECD; LecRK-I.9): N124N128N225D (protein)
parent chain: B1 parent chain
B3: DORN1 extracellular domain (atDORN1-ECD; LecRK-I.9): N124N204N225D (protein)
parent chain: B1 parent chain
B4: DORN1 extracellular domain (atDORN1-ECD; LecRK-I.9): N225D (protein)
parent chain: B1 parent chain
B5: DORN1 extracellular domain (atDORN1-ECD; LecRK-I.9): N124N128D (protein)
parent chain: B1 parent chain
B6: DORN1 extracellular domain (atDORN1-ECD; LecRK-I.9): N128N204N225D (protein)
parent chain: B1 parent chain
B7: DORN1 extracellular domain (atDORN1-ECD; LecRK-I.9): Endo H (protein)
parent chain: B1 parent chain
B8: DORN1 extracellular domain (atDORN1-ECD; LecRK-I.9): N128D (protein)
parent chain: B1 parent chain
B9: DORN1 extracellular domain (atDORN1-ECD; LecRK-I.9): PNGase F (protein)
parent chain: B1 parent chain
B10: DORN1 extracellular domain (atDORN1-ECD; LecRK-I.9): N124N128N204N225D (protein)
parent chain: B1 parent chain
B11: DORN1 extracellular domain (atDORN1-ECD; LecRK-I.9): N204D (protein)
parent chain: B1 parent chain
B12: DORN1 extracellular domain (atDORN1-ECD; LecRK-I.9): N204N225D (protein)
parent chain: B1 parent chain
B13: DORN1 extracellular domain (atDORN1-ECD; LecRK-I.9): N124D (protein)
parent chain: B1 parent chain
B14: DORN1 extracellular domain (atDORN1-ECD; LecRK-I.9): N124N204D (protein)
parent chain: B1 parent chain
B15: DORN1 extracellular domain (atDORN1-ECD; LecRK-I.9): N124N128N204D (protein)
parent chain: B1 parent chain
B16: DORN1 extracellular domain (atDORN1-ECD; LecRK-I.9): N128N204D (protein)
parent chain: B1 parent chain

Columns and labels:
[1] = expression yield of multisite mutants; details: glycan lost; control: wild type
[2] = yield of purified secreted protein, SDS-PAGE; details: glycan lost; control: wild type
[3] = aggregation after overnight glycosidase digestion; details: glycan lost; control: untreated

Row | Protein | expression_or_secretion, percent_of_wt [1] | also measured
1 | B1 | decreases | 
2 | B2 | decreases | 
3 | B3 | decreases | 
4 | B4 |  | expression_or_secretion [2]: no change
5 | B5 | decreases | 
6 | B6 | decreases | 
7 | B7 |  | stability_or_folding [3]: decreases
8 | B8 |  | expression_or_secretion [2]: no change
9 | B9 |  | stability_or_folding [3]: decreases
10 | B10 | decreases | 
11 | B11 |  | expression_or_secretion [2]: no change
12 | B12 | decreases | 
13 | B13 |  | expression_or_secretion [2]: no change
14 | B14 | decreases | 
15 | B15 | decreases | 
16 | B16 | decreases | 
